Experimental data reported in US20240115720A1 (Memorial Sloan Kettering, published 2024).

What was measured:
[1] = target: T1, full-length human DLL3 on cells (human, UniProt Q9NYJ7 27-618); test: cell-based or functional assay
T1 sequence: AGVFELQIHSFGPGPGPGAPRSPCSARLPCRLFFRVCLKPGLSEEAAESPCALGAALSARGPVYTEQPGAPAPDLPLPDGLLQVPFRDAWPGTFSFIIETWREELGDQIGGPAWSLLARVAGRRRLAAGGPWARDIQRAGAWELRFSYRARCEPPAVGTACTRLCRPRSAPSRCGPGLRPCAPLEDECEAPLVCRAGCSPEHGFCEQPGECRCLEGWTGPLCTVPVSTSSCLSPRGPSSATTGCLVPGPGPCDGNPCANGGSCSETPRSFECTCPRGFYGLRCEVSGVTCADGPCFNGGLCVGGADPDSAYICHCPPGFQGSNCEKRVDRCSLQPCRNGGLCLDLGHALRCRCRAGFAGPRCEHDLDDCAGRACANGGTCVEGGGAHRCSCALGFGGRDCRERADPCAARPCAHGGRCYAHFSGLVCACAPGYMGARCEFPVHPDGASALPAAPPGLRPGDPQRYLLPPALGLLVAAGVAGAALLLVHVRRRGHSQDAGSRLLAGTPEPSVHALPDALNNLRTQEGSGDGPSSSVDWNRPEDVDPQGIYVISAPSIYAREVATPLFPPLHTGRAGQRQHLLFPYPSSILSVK

[2] = target: T1, full-length human DLL3 on cells; test: cell-based or functional assay; remark: listed apart in the source
[3] = target: T2, full-length cynomolgous DLL3 on HEK293 cells (cynomolgous, UniProt A0A2K5WSR1 27-585); test: flow cytometry, HEK293 cells transfected with full-length cynomolgous DLL3, mAb 10 µg/ml
T2 construct: also called 293 cyno DLL3
T2 sequence: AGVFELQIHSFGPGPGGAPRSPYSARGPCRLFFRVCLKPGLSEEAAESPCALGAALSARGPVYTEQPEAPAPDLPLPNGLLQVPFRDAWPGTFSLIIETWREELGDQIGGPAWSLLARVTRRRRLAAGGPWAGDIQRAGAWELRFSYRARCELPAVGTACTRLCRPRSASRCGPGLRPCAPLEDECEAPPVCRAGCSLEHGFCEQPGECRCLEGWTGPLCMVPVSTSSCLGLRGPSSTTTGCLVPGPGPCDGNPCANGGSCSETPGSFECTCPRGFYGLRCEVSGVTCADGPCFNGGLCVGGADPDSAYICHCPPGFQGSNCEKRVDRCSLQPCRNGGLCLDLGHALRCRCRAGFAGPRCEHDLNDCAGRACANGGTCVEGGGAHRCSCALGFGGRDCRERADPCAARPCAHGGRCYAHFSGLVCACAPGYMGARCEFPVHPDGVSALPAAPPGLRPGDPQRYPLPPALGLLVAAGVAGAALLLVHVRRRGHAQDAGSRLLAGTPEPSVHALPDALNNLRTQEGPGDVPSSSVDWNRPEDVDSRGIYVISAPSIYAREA
Method: (§1) For this purpose, HEK293 cells were transfected with plasmid DNA encoding full-length human, mouse or cynomolgous DLL3 and used in the experiment. Briefly […] transfected HEK293 cells or NCI-H82 primary cells were added in FACS buffer PBS 0.5% BSA to the wells of a 96 well U bottom plate and purified monoclonal added to 10 μg/ml. After 30 minutes incubation at 4° C. the cells were washed 3 times in FACS buffer and incubated with a PE labelled F(ab)2 anti-mouse IgG H and L 2nd stage. After another 30 minutes incubation at 4° C. the cells were washed three times in FACS buffer and analyzed on the flow cytometer. Data are presented at the ratio of the Mean Fluorescent Intensity for the monoclonal divided by the background staining with the 2nd stage.

[4] = target: T1, full-length human DLL3 on cells; test: cell-based or functional assay; remark: listed apart in the source
[5] = target: T3, full-length mouse DLL3 on HEK293 cells (mouse, UniProt O88516 33-584); test: flow cytometry, HEK293 cells transfected with full-length mouse DLL3, mAb 10 µg/ml
T3 construct: DLL3'; also called 293 mDLL3
T3 sequence: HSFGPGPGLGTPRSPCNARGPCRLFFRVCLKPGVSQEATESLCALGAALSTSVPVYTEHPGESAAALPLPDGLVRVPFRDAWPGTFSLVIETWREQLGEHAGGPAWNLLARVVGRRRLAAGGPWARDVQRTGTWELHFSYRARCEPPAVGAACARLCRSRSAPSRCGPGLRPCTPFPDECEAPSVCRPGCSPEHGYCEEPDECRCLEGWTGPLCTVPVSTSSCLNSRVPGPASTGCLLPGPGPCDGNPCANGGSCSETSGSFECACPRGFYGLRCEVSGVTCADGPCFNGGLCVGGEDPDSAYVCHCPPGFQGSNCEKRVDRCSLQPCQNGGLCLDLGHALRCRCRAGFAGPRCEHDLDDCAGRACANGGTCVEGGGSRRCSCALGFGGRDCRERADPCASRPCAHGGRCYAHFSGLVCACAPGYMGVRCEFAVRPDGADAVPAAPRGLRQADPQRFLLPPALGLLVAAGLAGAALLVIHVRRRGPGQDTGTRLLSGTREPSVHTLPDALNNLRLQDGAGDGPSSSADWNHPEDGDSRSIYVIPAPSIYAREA
Method: as §1

[6] = target: T1, full-length human DLL3 on cells; test: flow cytometry, NCI-H82 cells (endogenous human DLL3), mAb 10 µg/ml
Method: as §1

[7] = target: T1, full-length human DLL3 on cells; test: flow cytometry, HEK293 cells transfected with full-length human DLL3, mAb 10 µg/ml
Method: as §1

B1: 2-C8-A (antibody, V domains shown)
VH: EVQLVESGGGLVQPGGSQRLSCAASGFTFSSYWMNWVRQAPGKGLEWVANIKEDGSEKYYVDSVKGRFTISRDNAKNSLYLQMNSLRAEDTAVYYCARDPGWAPFDYWGQGTLVTVSS
VL: DIQMSQSPSSLSASVGDRVTITCRASQGISNYLAWFQQKPGKAPKSLIYAASSLQSGVPSKFSGSGSGTDFTLAISSLQPEDFATYYCQQYNSFPYTFGQGTTLEIK
notes: also called 2-C8-A monoclonal antibody
MFI Ratio (4°C / 37°C staining of NCI-H82 cells; relative measure of internalization) [1]: 1.76
Dy light Dy650 fluorescence in the quenching internalization assay on NCI-H82 cells (% of the Control Reference Monoclonal Antibody) [2]: 62.9 % of the Control Reference Monoclonal Antibody
ratio of the Mean Fluorescent Intensity for the monoclonal divided by the background staining with the 2nd stage [3]: 15
FAB ZAP % SC16 Max Killing (NCI-H82 cells) [4]: 89 % SC16 Max Killing
ratio of the Mean Fluorescent Intensity for the monoclonal divided by the background staining with the 2nd stage [5]: 1.5
ratio of the Mean Fluorescent Intensity for the monoclonal divided by the background staining with the 2nd stage [6]: 11.9
ratio of the Mean Fluorescent Intensity for the monoclonal divided by the background staining with the 2nd stage [7]: 7.71

B2: 6-G23-F (antibody, V domains shown)
VH: QVQLVQSGAEVKKPGASVKVSCKASGYTFTSYYIHWVRQAPGQGLEWMGIIDPSDGSTNYAQKFQGRVTMTRDTSTSTVYMELSSLRSEDTAVYYCARDREYNYYGLDVWGQGTTVTVSS
VL: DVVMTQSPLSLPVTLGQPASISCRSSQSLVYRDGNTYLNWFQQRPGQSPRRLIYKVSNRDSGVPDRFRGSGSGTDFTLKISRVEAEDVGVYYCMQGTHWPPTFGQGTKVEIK
notes: also called 6-G23-F monoclonal antibody
MFI Ratio (4°C / 37°C staining of NCI-H82 cells; relative measure of internalization) [1]: 1.67
Dy light Dy650 fluorescence in the quenching internalization assay on NCI-H82 cells (% of the Control Reference Monoclonal Antibody) [2]: 76.5 % of the Control Reference Monoclonal Antibody
ratio of the Mean Fluorescent Intensity for the monoclonal divided by the background staining with the 2nd stage [3]: 13.1
FAB ZAP % SC16 Max Killing (NCI-H82 cells) [4]: 94 % SC16 Max Killing
ratio of the Mean Fluorescent Intensity for the monoclonal divided by the background staining with the 2nd stage [5]: 3.97
ratio of the Mean Fluorescent Intensity for the monoclonal divided by the background staining with the 2nd stage [6]: 11.1
ratio of the Mean Fluorescent Intensity for the monoclonal divided by the background staining with the 2nd stage [7]: 6.33

B3: 7-I1-B (antibody, V domains shown)
VH: EVQLVESGGGLVKPGGSLRLSCAASGFTFSNTWMSWVRQAPGKGLEWVGRIKSKSDGGTTDYAAPVKGRFTISRDDSKNTLYLQMNSLKTEDTAVYYCTQYYWNSFDYWGQGTLVTVSS
VL: not shown
notes: also called 7-I1-B mAb
MFI Ratio (4°C / 37°C staining of NCI-H82 cells; relative measure of internalization) [1]: 1.68
Dy light Dy650 fluorescence in the quenching internalization assay on NCI-H82 cells (% of the Control Reference Monoclonal Antibody) [2]: 70.1 % of the Control Reference Monoclonal Antibody
ratio of the Mean Fluorescent Intensity for the monoclonal divided by the background staining with the 2nd stage [3]: 18.7
FAB ZAP % SC16 Max Killing (NCI-H82 cells) [4]: 97 % SC16 Max Killing
ratio of the Mean Fluorescent Intensity for the monoclonal divided by the background staining with the 2nd stage [5]: 4.7
ratio of the Mean Fluorescent Intensity for the monoclonal divided by the background staining with the 2nd stage [6]: 19.2
ratio of the Mean Fluorescent Intensity for the monoclonal divided by the background staining with the 2nd stage [7]: 9.74

B4: 10-O18-A (antibody, V domains shown)
VH: QVQLQESGPGLVKPSETLSLTCTVSGGSINSYYWSWIRQPPGKGLEWIGYIFYSGITNYNPSLKSRVTISLDTSKNQFSLKLSSVTAADTAVYYCARIGVAGFYFDYWGQGTLVTVSS
VL: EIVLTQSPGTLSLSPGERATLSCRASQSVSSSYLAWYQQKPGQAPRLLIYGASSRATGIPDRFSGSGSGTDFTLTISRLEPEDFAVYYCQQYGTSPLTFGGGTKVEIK
notes: Hybridoma monoclonal from Ablexis AlivaMAb Kappa mice; it was captured on anti-mouse Fc sensors and detected with anti-mouse IgG / anti-mouse IgG1 reagents; also called 10-O18-A monoclonal antibody
MFI Ratio (4°C / 37°C staining of NCI-H82 cells; relative measure of internalization) [1]: 1.56
ratio of the Mean Fluorescent Intensity for the monoclonal divided by the background staining with the 2nd stage [3]: 9.85
ratio of the Mean Fluorescent Intensity for the monoclonal divided by the background staining with the 2nd stage [5]: 0.99
ratio of the Mean Fluorescent Intensity for the monoclonal divided by the background staining with the 2nd stage [6]: 9.4
ratio of the Mean Fluorescent Intensity for the monoclonal divided by the background staining with the 2nd stage [7]: 4.74
